Reference: patent publication US20180155406A1 (Sanofi, published 2018)
Numbered stars: 1 amine (or outer) side, 2 acyl side, 3 side chain; on linkers, the order of the positions; unused ones are H or OH. Square brackets hold non-standard residues; d marks the D form. Side chains are listed from the residue outwards. Ends that are not written are not given here. * marks the point of attachment. γGlu = O=C(O)[C@H](CCC(=O)[*:2])N[*:1]; Stearoyl = CCCCCCCCCCCCCCCCCC(=O)*; Palmitoyl = CCCCCCCCCCCCCCCC(=O)*; gAAA = not defined here; AEEA = NCCOCCOCC(=O)O; Aib = CC(C)(N)C(=O)O

How the values were obtained:
Test in all cases: cell-based or functional assay
[1] = molecular target: human glucagon receptor (human) (UniProt P47871)
[2] = molecular target: human GLP-1 receptor (human) (UniProt P43220)
human GLP-1 receptor = human GLP-1 receptor (human, UniProt P43220 24-463)
human GIP receptor = molecular target: T1, human GIP receptor (human, UniProt P48546 22-466)
T1 sequence (looked up): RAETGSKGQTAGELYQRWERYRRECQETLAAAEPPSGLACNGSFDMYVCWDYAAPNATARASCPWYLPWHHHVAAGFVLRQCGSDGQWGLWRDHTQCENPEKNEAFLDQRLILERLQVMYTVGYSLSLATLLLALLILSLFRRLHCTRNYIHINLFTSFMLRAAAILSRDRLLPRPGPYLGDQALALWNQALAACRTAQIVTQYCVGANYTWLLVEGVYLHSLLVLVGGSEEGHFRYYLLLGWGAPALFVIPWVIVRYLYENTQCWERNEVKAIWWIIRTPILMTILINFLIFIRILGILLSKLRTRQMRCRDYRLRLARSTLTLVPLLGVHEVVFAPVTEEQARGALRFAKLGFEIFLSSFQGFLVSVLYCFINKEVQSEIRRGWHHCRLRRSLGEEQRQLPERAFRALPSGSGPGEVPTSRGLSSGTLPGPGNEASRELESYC

human glucagon receptor [3] = molecular target: T2, human glucagon receptor (human, UniProt P47871 26-477)
human glucagon receptor [4] = molecular target: T2, human glucagon receptor; remark: listed apart in the source

T2 sequence (P47871 26-477): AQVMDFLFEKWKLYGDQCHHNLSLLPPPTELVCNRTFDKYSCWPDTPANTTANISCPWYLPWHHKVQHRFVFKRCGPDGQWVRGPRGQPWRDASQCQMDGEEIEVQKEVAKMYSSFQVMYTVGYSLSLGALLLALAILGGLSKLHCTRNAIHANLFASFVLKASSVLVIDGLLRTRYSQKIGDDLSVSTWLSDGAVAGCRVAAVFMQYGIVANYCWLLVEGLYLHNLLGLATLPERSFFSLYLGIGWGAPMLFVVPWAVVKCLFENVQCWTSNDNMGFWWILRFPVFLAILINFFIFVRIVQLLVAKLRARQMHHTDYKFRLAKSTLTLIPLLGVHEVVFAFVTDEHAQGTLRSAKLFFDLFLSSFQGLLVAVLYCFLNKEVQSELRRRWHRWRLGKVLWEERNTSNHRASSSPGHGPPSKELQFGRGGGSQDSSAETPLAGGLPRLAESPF
human GLP-1 receptor (human), sequence (P43220 24-463): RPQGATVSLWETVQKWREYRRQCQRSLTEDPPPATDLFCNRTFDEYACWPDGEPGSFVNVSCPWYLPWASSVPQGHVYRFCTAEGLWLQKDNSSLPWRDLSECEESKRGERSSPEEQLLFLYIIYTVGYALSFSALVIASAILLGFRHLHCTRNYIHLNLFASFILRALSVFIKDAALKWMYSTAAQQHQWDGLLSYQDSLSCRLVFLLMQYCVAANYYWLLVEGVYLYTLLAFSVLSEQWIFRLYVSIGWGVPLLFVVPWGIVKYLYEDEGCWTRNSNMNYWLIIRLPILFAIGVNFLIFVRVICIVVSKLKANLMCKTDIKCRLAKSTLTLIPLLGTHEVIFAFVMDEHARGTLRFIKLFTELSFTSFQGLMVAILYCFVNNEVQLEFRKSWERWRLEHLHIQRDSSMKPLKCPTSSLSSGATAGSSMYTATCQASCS
human glucagon receptor (human), sequence (P47871 26-477): as the sequence (P47871 26-477) above

| Molecule | EC50 hGlucagon R [pM] (cAMP formation) [1] | EC50 hGLP-1 R [pM] (cAMP formation) [2] | EC50 hGLP-1R (cAMP formation) (human GLP-1 receptor) | EC50 hGIP R (cAMP formation) (human GIP receptor) | EC50 hGlucagon R (cAMP formation) (human glucagon receptor [3]) | EC50 hGlucagon-R (human glucagon receptor [4]) |
| --- | --- | --- | --- | --- | --- | --- |
| exendin-4 (peptide) | > 1e+07 pM | 0.4 pM | – | – | – | – |
| H[Aib]HGTFTSDLSKLK([γGlu-γGlu-Palmitoyl])EEQRQKEFIEWLKAGGHPS[Aib]KPPPK-NH2 (N-terminus assumed; SMILES CCCCCCCCCCCCCCCC(=O)N[C@@H](CCC(=O)N[C@@H](CCC(=O)NCCCC[C@H](NC(=O)[C@H](CC(C)C)NC(=O)[C@H](CCCCN)NC(=O)[C@H](CO)NC(=O)[C@H](CC(C)C)NC(=O)[C@H](CC(=O)O)NC(=O)[C@H](CO)NC(=O)[C@@H](NC(=O)[C@H](Cc1ccccc1)NC(=O)[C@@H](NC(=O)CNC(=O)[C@H](Cc1c[nH]cn1)NC(=O)C(C)(C)NC(=O)[C@@H](N)Cc1c[nH]cn1)[C@@H](C)O)[C@@H](C)O)C(=O)N[C@@H](CCC(=O)O)C(=O)N[C@@H](CCC(=O)O)C(=O)N[C@@H](CCC(N)=O)C(=O)N[C@@H](CCCNC(=N)N)C(=O)N[C@@H](CCC(N)=O)C(=O)N[C@@H](CCCCN)C(=O)N[C@@H](CCC(=O)O)C(=O)N[C@@H](Cc1ccccc1)C(=O)N[C@H](C(=O)N[C@@H](CCC(=O)O)C(=O)N[C@@H](Cc1c[nH]c2ccccc12)C(=O)N[C@@H](CC(C)C)C(=O)N[C@@H](CCCCN)C(=O)N[C@@H](C)C(=O)NCC(=O)NCC(=O)N[C@@H](Cc1c[nH]cn1)C(=O)N1CCC[C@H]1C(=O)N[C@@H](CO)C(=O)NC(C)(C)C(=O)N[C@@H](CCCCN)C(=O)N1CCC[C@H]1C(=O)N1CCC[C@H]1C(=O)N1CCC[C@H]1C(=O)N[C@@H](CCCCN)C(N)=O)[C@@H](C)CC)C(=O)O)C(=O)O) [SEQ ID NO: 6] | – | – | 1.4 pM | 2.1 pM | 2.3 pM | – |
| HXQGTFTSDLSKQKDEQRAKEFIEWLKAGGPSSGAPPPS (Aib at 2; Lys14 side chain acylated with gGlu-Stea; C-terminal amide) [SEQ ID NO: 28] | – | – | – | – | – | 1.9 pM |
| H[Aib]HGTFTSDLSKLK([γGlu-AEEA-gAAA-Palmitoyl])EEQRQKEFIEWLKA[dA]GHPS[Aib]KPPPK-NH2 (reading uncertain) [SEQ ID NO: 23] | – | – | 1.4 pM | 1.5 pM | 6.8 pM | – |
| H[Aib]HGTFTSDLSKLK([γGlu-Palmitoyl])EEQRQKEFIEWLKAGGPPS[Aib]KPPPK-NH2 (N-terminus assumed; SMILES CCCCCCCCCCCCCCCC(=O)N[C@@H](CCC(=O)NCCCC[C@H](NC(=O)[C@H](CC(C)C)NC(=O)[C@H](CCCCN)NC(=O)[C@H](CO)NC(=O)[C@H](CC(C)C)NC(=O)[C@H](CC(=O)O)NC(=O)[C@H](CO)NC(=O)[C@@H](NC(=O)[C@H](Cc1ccccc1)NC(=O)[C@@H](NC(=O)CNC(=O)[C@H](Cc1c[nH]cn1)NC(=O)C(C)(C)NC(=O)[C@@H](N)Cc1c[nH]cn1)[C@@H](C)O)[C@@H](C)O)C(=O)N[C@@H](CCC(=O)O)C(=O)N[C@@H](CCC(=O)O)C(=O)N[C@@H](CCC(N)=O)C(=O)N[C@@H](CCCNC(=N)N)C(=O)N[C@@H](CCC(N)=O)C(=O)N[C@@H](CCCCN)C(=O)N[C@@H](CCC(=O)O)C(=O)N[C@@H](Cc1ccccc1)C(=O)N[C@H](C(=O)N[C@@H](CCC(=O)O)C(=O)N[C@@H](Cc1c[nH]c2ccccc12)C(=O)N[C@@H](CC(C)C)C(=O)N[C@@H](CCCCN)C(=O)N[C@@H](C)C(=O)NCC(=O)NCC(=O)N1CCC[C@H]1C(=O)N1CCC[C@H]1C(=O)N[C@@H](CO)C(=O)NC(C)(C)C(=O)N[C@@H](CCCCN)C(=O)N1CCC[C@H]1C(=O)N1CCC[C@H]1C(=O)N1CCC[C@H]1C(=O)N[C@@H](CCCCN)C(N)=O)[C@@H](C)CC)C(=O)O) [SEQ ID NO: 20] | – | – | 4.8 pM | 1.9 pM | 4.2 pM | – |
| H[Aib]HGTFTSDLSKLK([γGlu-AEEA-gAAA-Palmitoyl])EEQRQKEFIEWLKAGGHPS[Aib]KPPPK-NH2 (reading uncertain) [SEQ ID NO: 22] | – | – | 1 pM | 1.1 pM | 5.9 pM | – |
| H[Aib]HGTFTSDLSKLK([γGlu-Stearoyl])EEQRQKEFIEWLKAGGPPS[Aib]KPPPK-NH2 (N-terminus assumed; SMILES CCCCCCCCCCCCCCCCCC(=O)N[C@@H](CCC(=O)NCCCC[C@H](NC(=O)[C@H](CC(C)C)NC(=O)[C@H](CCCCN)NC(=O)[C@H](CO)NC(=O)[C@H](CC(C)C)NC(=O)[C@H](CC(=O)O)NC(=O)[C@H](CO)NC(=O)[C@@H](NC(=O)[C@H](Cc1ccccc1)NC(=O)[C@@H](NC(=O)CNC(=O)[C@H](Cc1c[nH]cn1)NC(=O)C(C)(C)NC(=O)[C@@H](N)Cc1c[nH]cn1)[C@@H](C)O)[C@@H](C)O)C(=O)N[C@@H](CCC(=O)O)C(=O)N[C@@H](CCC(=O)O)C(=O)N[C@@H](CCC(N)=O)C(=O)N[C@@H](CCCNC(=N)N)C(=O)N[C@@H](CCC(N)=O)C(=O)N[C@@H](CCCCN)C(=O)N[C@@H](CCC(=O)O)C(=O)N[C@@H](Cc1ccccc1)C(=O)N[C@H](C(=O)N[C@@H](CCC(=O)O)C(=O)N[C@@H](Cc1c[nH]c2ccccc12)C(=O)N[C@@H](CC(C)C)C(=O)N[C@@H](CCCCN)C(=O)N[C@@H](C)C(=O)NCC(=O)NCC(=O)N1CCC[C@H]1C(=O)N1CCC[C@H]1C(=O)N[C@@H](CO)C(=O)NC(C)(C)C(=O)N[C@@H](CCCCN)C(=O)N1CCC[C@H]1C(=O)N1CCC[C@H]1C(=O)N1CCC[C@H]1C(=O)N[C@@H](CCCCN)C(N)=O)[C@@H](C)CC)C(=O)O) [SEQ ID NO: 21] | – | – | 3.4 pM | 2.6 pM | 1.9 pM | – |
